Measurements published in article PMC11066524, “The molecular determinants of classical pathway complement inhibition by OspEF-related proteins of Borrelia burgdorferi” (The Journal of Biological Chemistry, 2024).

T1: full-length activated human C1s (human, UniProt P09871 16-437; P09871 438-688)
T1 construct: also called active C1s
T1 sequence 1: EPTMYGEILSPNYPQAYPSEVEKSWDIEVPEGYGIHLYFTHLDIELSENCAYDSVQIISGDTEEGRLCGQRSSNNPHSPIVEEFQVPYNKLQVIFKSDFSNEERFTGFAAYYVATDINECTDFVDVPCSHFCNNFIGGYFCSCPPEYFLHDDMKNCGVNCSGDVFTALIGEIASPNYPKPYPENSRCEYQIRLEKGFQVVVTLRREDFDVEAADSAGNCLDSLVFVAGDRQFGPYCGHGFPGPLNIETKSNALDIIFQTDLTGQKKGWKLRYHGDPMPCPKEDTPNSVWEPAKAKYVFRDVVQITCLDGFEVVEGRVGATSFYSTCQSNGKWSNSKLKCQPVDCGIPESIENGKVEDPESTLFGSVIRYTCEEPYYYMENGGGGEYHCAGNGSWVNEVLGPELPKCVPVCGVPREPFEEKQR
T1 sequence 2: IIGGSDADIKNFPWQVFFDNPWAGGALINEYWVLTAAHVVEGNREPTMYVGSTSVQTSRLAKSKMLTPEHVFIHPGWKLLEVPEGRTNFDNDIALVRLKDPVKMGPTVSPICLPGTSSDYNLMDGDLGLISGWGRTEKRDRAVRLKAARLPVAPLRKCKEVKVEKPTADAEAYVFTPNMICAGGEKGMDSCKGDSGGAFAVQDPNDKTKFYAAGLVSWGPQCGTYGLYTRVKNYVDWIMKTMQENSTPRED

T2: activated full-length human C1r (human, UniProt P00736 18-705)
T2 construct: as far as I recall it is cleaved at Arg463-Ile464 of P00736 and lacks the signal peptide (1-17); also called active C1r
T2 sequence: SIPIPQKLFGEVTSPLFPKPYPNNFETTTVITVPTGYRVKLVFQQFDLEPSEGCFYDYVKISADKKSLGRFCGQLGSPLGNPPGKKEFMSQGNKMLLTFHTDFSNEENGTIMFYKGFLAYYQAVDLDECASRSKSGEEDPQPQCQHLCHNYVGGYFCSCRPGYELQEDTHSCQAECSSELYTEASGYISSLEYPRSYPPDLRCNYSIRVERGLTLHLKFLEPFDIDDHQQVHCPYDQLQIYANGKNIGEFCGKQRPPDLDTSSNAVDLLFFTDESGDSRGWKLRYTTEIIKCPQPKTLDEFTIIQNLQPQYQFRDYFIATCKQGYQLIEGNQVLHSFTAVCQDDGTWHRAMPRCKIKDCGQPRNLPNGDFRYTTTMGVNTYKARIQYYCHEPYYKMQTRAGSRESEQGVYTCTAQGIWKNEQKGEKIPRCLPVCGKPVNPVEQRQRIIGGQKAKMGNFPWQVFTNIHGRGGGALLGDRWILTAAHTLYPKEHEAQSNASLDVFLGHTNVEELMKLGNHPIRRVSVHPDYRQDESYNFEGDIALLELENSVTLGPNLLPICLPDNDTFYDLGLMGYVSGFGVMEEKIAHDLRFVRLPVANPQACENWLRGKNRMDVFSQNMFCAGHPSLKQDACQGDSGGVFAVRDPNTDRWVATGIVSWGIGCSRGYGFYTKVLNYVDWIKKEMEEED


Columns and labels:
Conditions in all cases: both partners purified
[1] = target: T1, full-length activated human C1s; test: SPR; kinetic fit (K_(D, kin)), 1:1 Langmuir; ElpQ/ElpB proteins amine-coupled to a CMD200 chip; activated C1s or C1r injected 0-200 nM, multicycle; HBS-T Ca2+ (10 mM Hepes pH 7.3, 140 mM NaCl, 0.005% Tween-20, 5 mM CaCl2); 30 μl/min; association 120 s (C1r 480 s), dissociation 180 s
[2] = target: T2, activated full-length human C1r; test: as above
[3] = target: T1, full-length activated human C1s; test: SPR; steady-state fit (K_(D, ss)), 1:1 model, of the same injection series as a2; ElpQ proteins amine-coupled to a CMD200 chip; activated C1s or C1r 0-200 nM; HBS-T Ca2+ (10 mM Hepes pH 7.3, 140 mM NaCl, 0.005% Tween-20, 5 mM CaCl2)
[4] = target: T2, activated full-length human C1r; test: as above
[5] = target: T1, full-length activated human C1s; test: HDX-MS; ElpQ_(19-343) alone or with a 3-fold molar excess of full-length activated C1s, on ice ~20 min before analysis; exchange 0 s to 2 h at 20 °C in D2O buffer (25 mM phosphate pD 7.5, 0.1 M NaCl); triplicate

Binder | Kd [1] [nM] | koff [1] [s⁻¹] | kon [1] [M⁻¹ s⁻¹] | koff [2] [s⁻¹] | kon [2] [M⁻¹ s⁻¹] | Kd [3] [nM] | Kd [2] [nM] | Kd [4] [nM] | binding result [5]
ElpQA4 (domain or fragment, Borrelia burgdorferi strain B31, UniProt Q9S035 181-343, looked up, Synthetic E. coli codon-optimised gene fragment cloned BamHI/NotI into pT7HMT) REEAEQQKRQQEEEEKRQVDNQIKTLIAKIDEINENIDVIKWQTTVGPQGVIDRITGPVYDDFTNGNNSIRATWEGLAAESADEGLGKLLKELSDARDALRTKLNEGNKPYTGYEEPKLKESVNVSEIKEDLEKLKSKLEEVKKYLKDSSKFEEIKGYISDSQ | 173 | 0.0103 | 60100 | 0.493 | 2440 | ~464 |  |  | 
ElpQ_(181-343) (domain or fragment, pT7HMT adds, as far as I recall, an N-terminal His-Myc tag with a TEV site that is usually cleaved; also called C-terminal truncation construct of ElpQ) REEAEQQKRQQEEEEKRQVDNQIKTLIAKIDEINENIDVIKWQTTVGPQGVIDRITGPVYDDFTNGNNSIRETWEGLEEESEDEGLGKLLKELSDARDALRTKLNEGNKPYTGYEEPKLKESVNVSEIKEDLEKLKSKLEEVKKYLKDSSKFEEIKGYISDSQ | 14.5 | 0.00683 | 477000 | 0.00316 | 21700 | 39.3 | 151 | 221 | 
full-length ElpQ (ElpQ_(19-343)) (natural protein, ElpQ, outer surface lipoprotein of the OspEF-related protein family, Borrelia burgdorferi strain B31, UniProt Q9S035, residues 19-343 (325 residues); also called Apo-ElpQ_(19-343)) KNFATGKDIKQNSEGKIKGFVNKILDPVKDKIASSGTKVDEVAKKLQEEEKEELMQGDDPNGSGINPPPVLPENIHNNALVLKAIEQSDGQQEKKVEEAEAKVEENKEKQENTEENIKEKEIIDEQNKQELAKAKEEEQQKEQKRHQEEQQRKAKAEKEKREREEAEQQKRQQEEEEKRQVDNQIKTLIAKIDEINENIDVIKWQTTVGPQGVIDRITGPVYDDFTNGNNSIRETWEGLEEESEDEGLGKLLKELSDARDALRTKLNEGNKPYTGYEEPKLKESVNVSEIKEDLEKLKSKLEEVKKYLKDSSKFEEIKGYISDSQ |  |  |  |  |  |  |  |  | binds
ElpQ_(181-340) (domain or fragment, also called ElpQ truncation lacking residues 341 to 343) REEAEQQKRQQEEEEKRQVDNQIKTLIAKIDEINENIDVIKWQTTVGPQGVIDRITGPVYDDFTNGNNSIRETWEGLEEESEDEGLGKLLKELSDARDALRTKLNEGNKPYTGYEEPKLKESVNVSEIKEDLEKLKSKLEEVKKYLKDSSKFEEIKGYIS | 20.8 | 0.00794 | 425000 | 0.00277 | 26400 | 55.6 | 113 | 181 | 
ElpQ_(Δ290-296) (domain or fragment, Borrelia burgdorferi strain B31, UniProt Q9S035 181-343, looked up, Synthetic E. coli codon-optimised gene fragment cloned BamHI/NotI into pT7HMT; also called Δ290 to 296) REEAEQQKRQQEEEEKRQVDNQIKTLIAKIDEINENIDVIKWQTTVGPQGVIDRITGPVYDDFTNGNNSIRETWEGLEEESEDEGLGKLLKELSDARDALRTKLNEGNKPKLKESVNVSEIKEDLEKLKSKLEEVKKYLKDSSKFEEIKGYISDSQ | ~623 | 0.00746 | 22500 |  |  | ~665 |  |  | 
